In US20240174755A1 (published 2024):

B1: 1B5-liposome-100 (protein)
VHH: EVQLVESGGGLVQPGGSLRLSCVASGFSFSESAMSWVRQAPGKGLEWLSGISSGGGRSTTYAESVEGRFTISRDDAKNTLMLQMNSLKSEDTAVYYCAKTGYCSGYNCNFAPRGQGTQVTVSS
modifications: coupled to maleimide-PEG-DSPE and post-inserted into calcein/rhodamine PE liposomes; 100 nanobodies per liposome
B2: QPD-1B5 (VHH)
VHH: EVQLVESGGGLVQPGGSLRLSCVASGFSFSESAMSWVRQAPGKGLEWLSGISSGGGRSTTYAESVEGRFTISRDDAKNTLMLQMNSLKSEDTAVYYCAKTGYCSGYNCNFAPRGQGTQVTVSS
notes: Purified, unconjugated VHH; also called VHH 1B5

How the values were obtained:
[1] = target: human PDGFR β on HEK293-PDGFR β cells (human) (UniProt P09619); experiment: HEK293-PDGFRβ cells with 500 uM liposome, plate reader (data not shown)
[2] = target: human PDGFR β on HEK293-PDGFR β cells (human) (UniProt P09619); experiment: HEK293-PDGFRβ cells with 500 uM liposome on ice, plate reader
[3] = target: human PDGFR β on HEK293-PDGFR β cells (human) (UniProt P09619); experiment: time course on HEK293-PDGFRβ cells, plate reader
[4] = target: human PDGFR β on HEK293-PDGFR β cells (human) (UniProt P09619); experiment: HEK293-PDGFRβ cells with 500 uM liposome, plate reader
[5] = target: human PDGFR β on HEK293-PDGFR β cells (human) (UniProt P09619); experiment: time course on HEK293-PDGFRβ cells, plate reader; not statistically significant
[6] = target: T1, human PDGFR β extra-cellular domain (ECD), Fc- and His-tagged (Sino Biological) (human, UniProt P09619 33-532); experiment: SPR (Biacore 3000), Fc/His PDGFR β ECD captured on protein A; 1B5 construct not stated
T1 construct: extracellular domain; Bought; also called hECD; Fc/His-tagged PDGFR β ECD; not shown: Fc tag and His tag
Experimental: FIG. 11: VHH (flag-his-tagged, or conjugated with HL488, NOTA or 800 CW) binding to human extracellular domain (ECD) of PDGFR β assessed with surface plasmon resonance (SPR). Fc/His-tagged PDGFR β ECD was bound to protein A chemically conjugated to CM4 sensor chip. Binding of VHHs was tested at 0.39-50 nM. Shown are representative SPR Biacore traces of tagged or conjugated 1B5 VHH (panels A); tagged or conjugated 1D4 VHH (panels B); tagged or conjugated 1H4 VHH (panels C) or tagged VHH 1E12 (panel D).
SPR analysis was performed using the Biacore 3000 instrument (GE Healthcare). Protein A was chemically bound to a CM4 sensor chip (GE Healthcare) according to the primary amine procedure to approximately 2100 response units (RU). Fc/His-tagged PDGFR β ECD at 0.4-2.07 ng/ul was bound to protein A at flow rate of 35 ul/min. Run buffer HBS-EP (GE Healthcare; 0.01 M HEPES pH 7.4, 0.15 M NaCl, 3 mM EDTA, 0.005% v/v Surfactant P20) was used for VHHs 1D4, 1H4 and 1E12 conjugates at 50, 25, 12.5, 6.25, 3.13, 1.56, 0.78 and 0.39 nM. For 1B5 conjugates, HBS-EP+0.5 M NaSCN was as run buffer to reduce non-specific binding to a control path without PDGFR β ECD. A flow rate 70 ul/min was used for VHH injections in volumes of 150 ul. Regeneration of the sensor CM4 chip was performed by three successive injections of c. 30 s 10 mM glycine-HCl pH 2, 10 mM glycine-HCl pH 1.5, and 0.5 M NaSCN/10 mM NaOH.

[7] = target: human PDGFR β ECD (U-protein Express, Utrecht) (human) (UniProt P09619); experiment: dose response ELISA, PDGFR β ECD coated at 2 µg/ml, rabbit anti-VHH detection
Chain of human PDGFR β ECD (U-protein Express, Utrecht) (human) (P09619 33-532): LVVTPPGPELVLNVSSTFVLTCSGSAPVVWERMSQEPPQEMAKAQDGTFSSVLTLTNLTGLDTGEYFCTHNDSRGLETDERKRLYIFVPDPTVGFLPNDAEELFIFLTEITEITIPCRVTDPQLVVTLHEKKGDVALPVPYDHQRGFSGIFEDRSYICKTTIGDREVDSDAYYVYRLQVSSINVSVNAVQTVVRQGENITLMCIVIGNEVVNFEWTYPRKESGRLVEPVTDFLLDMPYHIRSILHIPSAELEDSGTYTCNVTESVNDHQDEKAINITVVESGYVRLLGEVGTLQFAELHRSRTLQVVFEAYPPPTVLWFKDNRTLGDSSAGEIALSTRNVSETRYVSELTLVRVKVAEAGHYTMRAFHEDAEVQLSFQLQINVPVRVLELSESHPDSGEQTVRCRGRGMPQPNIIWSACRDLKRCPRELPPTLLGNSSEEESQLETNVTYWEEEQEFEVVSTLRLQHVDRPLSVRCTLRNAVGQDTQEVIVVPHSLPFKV

Chain of human PDGFR β on HEK293-PDGFR β cells (human) (P09619 33-1106): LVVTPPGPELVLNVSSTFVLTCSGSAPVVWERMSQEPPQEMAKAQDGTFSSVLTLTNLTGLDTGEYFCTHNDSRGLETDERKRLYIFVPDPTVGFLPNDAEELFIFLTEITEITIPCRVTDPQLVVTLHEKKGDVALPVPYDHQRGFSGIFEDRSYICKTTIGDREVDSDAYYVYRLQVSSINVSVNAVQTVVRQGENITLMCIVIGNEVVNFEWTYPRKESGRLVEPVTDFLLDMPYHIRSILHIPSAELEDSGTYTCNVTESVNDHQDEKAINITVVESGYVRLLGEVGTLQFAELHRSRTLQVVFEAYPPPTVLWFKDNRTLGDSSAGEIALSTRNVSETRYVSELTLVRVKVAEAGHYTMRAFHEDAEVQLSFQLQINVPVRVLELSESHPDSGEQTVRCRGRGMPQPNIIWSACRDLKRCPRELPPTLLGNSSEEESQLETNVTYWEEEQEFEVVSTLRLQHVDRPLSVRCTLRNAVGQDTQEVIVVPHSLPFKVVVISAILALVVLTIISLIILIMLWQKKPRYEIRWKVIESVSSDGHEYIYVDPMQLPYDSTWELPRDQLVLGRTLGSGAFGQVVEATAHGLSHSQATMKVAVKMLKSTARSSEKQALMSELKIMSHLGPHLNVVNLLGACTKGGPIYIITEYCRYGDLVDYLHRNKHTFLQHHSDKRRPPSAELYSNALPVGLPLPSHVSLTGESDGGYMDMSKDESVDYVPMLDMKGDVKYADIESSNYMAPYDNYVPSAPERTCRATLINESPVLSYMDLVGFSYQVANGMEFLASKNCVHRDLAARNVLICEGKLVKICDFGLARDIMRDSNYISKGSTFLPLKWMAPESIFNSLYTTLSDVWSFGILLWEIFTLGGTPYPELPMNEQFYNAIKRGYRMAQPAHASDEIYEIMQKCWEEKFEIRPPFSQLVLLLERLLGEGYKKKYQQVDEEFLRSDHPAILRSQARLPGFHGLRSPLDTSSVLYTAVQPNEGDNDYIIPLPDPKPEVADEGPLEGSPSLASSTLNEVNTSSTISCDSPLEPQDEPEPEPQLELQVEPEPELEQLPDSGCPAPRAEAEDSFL
T1 sequence (P09619 33-532): as the sequence (P09619 33-532) above

Binder	fold rhodamine PE signal, 37° C. [1] [fold]	fold calcein fluorescence over non-targeted control, on ice (binding) [2] [fold]	fold calcein fluorescence over liposome-0, 3 h (uptake) [3] [fold]	fold calcein fluorescence over liposome-0, 6 h (uptake) [3] [fold]	fold calcein fluorescence over non-targeted liposome-0, 37° C. (binding and uptake) [4] [fold]	fold calcein fluorescence over liposome-0, 0 h (binding and/or uptake) [5] [fold]	fold calcein fluorescence over liposome-0, 1 h (binding and/or uptake) [5] [fold]	Kd [6] [pM]	apparent affinity [7] [nM]
B1	2.4	1.8	4.7	5.1	3.4	2.2	2.8	–	–
B2	–	–	–	–	–	–	–	4 to 5	1
